In data set [1] the target is T1, FL-hcGAS (human cyclic GMP-AMP synthase) (human, UniProt Q8N884 1-522). In words: phase separation microscopy.
Data set [2] has as its target T1, FL-hcGAS (human cyclic GMP-AMP synthase). Description: phase separation microscopy. This is another data set of the same source.

Read-outs that look alike come from different tables or passages of the source.

T1 sequence (Q8N884 whole entry): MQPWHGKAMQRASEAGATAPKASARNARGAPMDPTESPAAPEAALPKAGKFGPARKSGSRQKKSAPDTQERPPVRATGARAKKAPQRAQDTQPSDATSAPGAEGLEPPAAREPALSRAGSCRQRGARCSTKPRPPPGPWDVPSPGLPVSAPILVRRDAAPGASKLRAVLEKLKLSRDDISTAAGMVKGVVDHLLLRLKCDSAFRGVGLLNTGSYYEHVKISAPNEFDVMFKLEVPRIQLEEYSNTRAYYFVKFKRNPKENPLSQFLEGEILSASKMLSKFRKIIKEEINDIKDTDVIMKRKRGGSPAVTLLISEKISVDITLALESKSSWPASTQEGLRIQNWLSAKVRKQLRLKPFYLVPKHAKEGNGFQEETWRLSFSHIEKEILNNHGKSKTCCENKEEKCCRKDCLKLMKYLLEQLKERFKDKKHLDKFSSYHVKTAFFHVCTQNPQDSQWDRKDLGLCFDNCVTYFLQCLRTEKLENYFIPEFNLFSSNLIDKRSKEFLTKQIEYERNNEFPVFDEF

B1: ISD (interferon stimulatory DNA, 45 bp) (dsDNA)
DNA 1: TACAGATCTACTAGTGATCTATGACTGATCTGTACATGATCTACA
DNA 2: TGTAGATCATGTACAGATCAGTCATAGATCACTAGTAGATCTGTA
With B1, the binding result in data set [1] is reported as “binds”.

B2: 48 nt ssDNA (AG repeat) (ssDNA)
DNA: AGAGAGAGAGAGAGAGAGAGAGAGAGAGAGAGAGAGAGAGAGAGAGAG
As to B2, the binding result in data set [2] was “binds”.

The values are drawn from publication doi:10.1101/2020.09.27.316166.
